± gives the standard deviation of the averaged measurements.
Test system: ATP
Assay: switch fluorescence ratio, 500 uM ATP over buffer (Cy3 cluster intensity, sum of 5 cycles each) (fold (ratio)); higher = stronger signal-on switching upon ATP binding; sequences stand for … in TCGTCGGCAGCGTCAGATGTGTATAAGAGACAGTTTTTTTTTTTTTTTTTTTTTTTTT…TC
Conditions: aptamer strand: ATP DNA aptamer (quencher-CACCTGGGGGAGTATTGCGGAGGAAGG + anchor), 100 nM annealed; ATP concentration: 500 uM
How it was run: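 Per cluster, summed Cy3 intensity from the target cycles was divided by that from the buffer cycles to give the fluorescence ratio, then averaged per switch-domain sequence. Clusters outside 100-1000 RFU were excluded. The Cy3-labelled switching-strand clusters, on a modified Illumina MiSeq flow-cell, were annealed to 100 nM quencher-labelled ATP aptamer and imaged in selection buffer, then after 15 min with 500 uM ATP at 22 °C, for five cycles with NaOH stripping and re-annealing between them.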
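Also: ATP exposure 15 min at 22 °C before imaging.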

Sequence	switch fluorescence ratio
TCGGACTCGG	0.963 ± 0.017
TCGGACTGGG	1.01 ± 0.022
TCGGAGAGGG	0.974 ± 0.037
TCGGAGGAAG	1.02 ± 0.012
TCGGAGGCCT	1.04 ± 0.04
TCGGAGGTGT	1.01 ± 0.027
TCGGAGTAG	1.04 ± 0.031
TCGGATAGCT	1.02 ± 0.014
TCGGATAGTC	1.01 ± 0.026
TCGGATCCAA	1.048 ± 0.0022
TCGGATTGGA	0.981 ± 0.028
TCGGCACCAA	1.05 ± 0.046
TCGGCAGTGG	1.03 ± 0.027
TCGGCCATCG	1 ± 0.016
TCGGCGTATC	0.979 ± 0.01
TCGGCGTTCA	1.02 ± 0.02
TCGGCTCTTG	1.013 ± 0.0046
TCGGCTTGGC	1.03 ± 0.086
TCGGCTTGGG	0.987 ± 0.02
TCGGCTTTGG	0.9639 ± 0.0093
TCGGGAAGGT	1 ± 0.023
TCGGGAGTAT	1.04 ± 0.03
TCGGGATAGC	1.08 ± 0.052
TCGGGATGTT	0.989 ± 0.027
TCGGGCTGGG	1.03 ± 0.0069

Sequence	switch fluorescence ratio
TCGGGCTGTG	1.02 ± 0.05
TCGGGGACCG	0.952 ± 0.052
TCGGGGATGA	1.067 ± 0.0092
TCGGGGCGCG	0.975 ± 0.061
TCGGGGCGG	0.992 ± 0.011
TCGGGGCGGC	1.02 ± 0.046
TCGGGGCGGG	1.01 ± 0.056
TCGGGGGCGA	1.13 ± 0.17
TCGGGGGCGT	1.03 ± 0.038
TCGGGGGGG	1.01 ± 0.016
TCGGGGGGGC	1.01 ± 0.072
TCGGGGGGTC	0.981 ± 0.043
TCGGGGGTG	1.01 ± 0.085
TCGGGGGTGG	0.988 ± 0.014
TCGGGGTTTA	0.994 ± 0.059
TCGGGGTTTC	1.05 ± 0.019
TCGGGTAAAC	1.03 ± 0.042
TCGGGTAAGT	1.01 ± 0.077
TCGGGTACTG	0.979 ± 0.093
TCGGGTATGG	1.01 ± 0.042
TCGGGTCATG	1.04 ± 0.04
TCGGGTCCGC	1.06 ± 0.046
TCGGGTCGCG	0.9948 ± 0.00097
TCGGGTGAAC	0.983 ± 0.041
TCGGGTGGGA	1.05 ± 0.058

Sequence	switch fluorescence ratio
TCGGGTGGTG	0.92 ± 0.16
TCGGGTTGGT	1.02 ± 0.061
TCGGGTTTAT	1 ± 0.037
TCGGTAGCGA	1.14 ± 0.17
TCGGTCAAGG	0.949 ± 0.02
TCGGTCCTGC	1 ± 0.024
TCGGTCGCGG	0.974 ± 0.028
TCGGTCGTGC	1.03 ± 0.034
TCGGTGATGG	0.988 ± 0.021
TCGGTGTCTA	0.985 ± 0.02
TCGGTGTGCA	0.985 ± 0.024
TCGGTTAATA	1.018 ± 0.0054
TCGGTTACAT	0.983 ± 0.016
TCGGTTCATT	0.9962 ± 0.004
TCGGTTGTGT	1.08 ± 0.078
TCGGTTGTTG	1.01 ± 0.013
TCGGTTTAAC	1.04 ± 0.038
TCGGTTTGCA	0.997 ± 0.018
TCGGTTTGCG	1.01 ± 0.022
TCGTAACTTA	1.03 ± 0.011
TCGTAATGAG	1.019 ± 0.0034
TCGTAATTGT	1.02 ± 0.024
TCGTACATGA	1.013 ± 0.00015
TCGTACGAAG	1 ± 0.032
TCGTAGAAGG	0.991 ± 0.048

Sequence	switch fluorescence ratio
TCGTAGAGTG	0.954 ± 0.026
TCGTAGGGG	0.961 ± 0.018
TCGTATACGG	0.963 ± 0.044
TCGTATTAAG	0.969 ± 0.046
TCGTATTACG	1.03 ± 0.094
TCGTCAAATT	0.991 ± 0.067
TCGTCAACGG	1.01 ± 0.023
TCGTCCGAAG	1.45 ± 0.04
TCGTCTAAGG	0.995 ± 0.014
TCGTCTAATG	0.9784 ± 0.0016
TCGTGAGGGG	1.02 ± 0.047
TCGTGATTGG	1.007 ± 0.0097
TCGTGCGGTT	1.01 ± 0.032
TCGTGGGCGA	0.993 ± 0.011
TCGTGTATAT	1 ± 0.027
TCGTGTATCT	0.946 ± 0.039
TCGTGTATGA	1.036 ± 0.0059
TCGTGTGACT	0.98961 ± 8.7e-05
TCGTGTGATG	0.9686 ± 0.0049
TCGTGTTCGA	1.001 ± 0.0094
TCGTTAATCA	0.9835 ± 0.0088
TCGTTAGATG	0.989 ± 0.023
TCGTTAGGTG	1.03 ± 0.025
TCGTTATGT	0.97732 ± 9.1e-05
TCGTTATGTC	1 ± 0.032

Sequence	switch fluorescence ratio
TCGTTCAATC	1.314 ± 0.01
TCGTTGGGGG	0.995 ± 0.013
TCGTTGTTAT	1 ± 0.023
TCGTTTAATT	0.994 ± 0.04
TCGTTTTTGA	0.985 ± 0.039
TCGTTTTTGG	1 ± 0.041
TCGTTTTTTA	1.22 ± 0.45
TCGTTTTTTG	0.984 ± 0.016
TCTAAAGCTG	1 ± 0.023
TCTAAAGGAT	1.006 ± 0.004
TCTAAATAGC	1.05 ± 0.038
TCTAAATCG	1.04 ± 0.055
TCTAAATTTA	1.01 ± 0.06
TCTAAGGGTG	1.014 ± 0.01
TCTAAGGTTA	1 ± 0.02
TCTAATACGG	1.04 ± 0.02
TCTAATCCGG	1.015 ± 0.0051
TCTAATCGGA	0.975 ± 0.04
TCTAATGGAA	1.01 ± 0.018
TCTACATGAT	1.05 ± 0.013
TCTACCTACA	1.33 ± 0.051
TCTACGGGGT	1.46 ± 0.55
TCTAGAATGG	0.982 ± 0.033
TCTAGCAACG	1.01 ± 0.032
TCTAGCGTAC	2.64 ± 0.44

Sequence	switch fluorescence ratio
TCTAGGAAAG	0.991 ± 0.034
TCTAGGAGGT	0.987 ± 0.028
TCTAGGGGTG	1.03 ± 0.025
TCTAGTCGAA	1.02 ± 0.036
TCTAGTGGTT	1 ± 0.019
TCTAGTGTCG	1.03 ± 0.11
TCTATAGTTC	1.01 ± 0.034
TCTATCGTTA	1.04 ± 0.03
TCTATGGTCT	0.99 ± 0.011
TCTATTCGGG	0.9484 ± 0.0029
TCTATTGCTG	0.995 ± 0.02
TCTATTTTTT	1.01 ± 0.014
TCTCAATGCG	1.02 ± 0.065
TCTCATGTAG	1.018 ± 0.009
TCTCCATTGT	1.04 ± 0.046
TCTCGGGGCT	0.97 ± 0.011
TCTCGGTGAG	0.99 ± 0.051
TCTCTAGCTG	1.05 ± 0.041
TCTCTGGTTA	1.01 ± 0.018
TCTCTTTAAT	0.997 ± 0.021
TCTCTTTGTG	1.02 ± 0.024
TCTGACGTAC	2.57 ± 0.19
TCTGAGACGC	1.05 ± 0.019
TCTGAGCAAG	2.47 ± 0.25
TCTGAGCGGA	1.14 ± 0.13

Sequence	switch fluorescence ratio
TCTGAGGGGG	1 ± 0.027
TCTGAGTGCG	1.02 ± 0.02
TCTGAGTTTG	0.993 ± 0.038
TCTGATGGCT	1.04 ± 0.05
TCTGCGGGGA	1.14 ± 0.21
TCTGCTTCAG	0.973 ± 0.022
TCTGGATCA	1.0079 ± 0.00014
TCTGGGAAGA	1.02 ± 0.044
TCTGGGAAGT	0.986 ± 0.011
TCTGGGCCGG	0.989 ± 0.034
TCTGGGGCGC	0.984 ± 0.015
TCTGGTAGCG	1.02 ± 0.021
TCTGGTATGA	1.01 ± 0.015
TCTGGTGTTT	0.986 ± 0.024
TCTGGTTGCG	1 ± 0.037
TCTGGTTGGT	1.01 ± 0.051
TCTGTAAGGC	1.39 ± 0.066
TCTGTCCTTC	1.06 ± 0.054
TCTGTCGGGC	0.994 ± 0.054
TCTGTTATCA	1 ± 0.029
TCTGTTGGGC	0.995 ± 0.025
TCTGTTGTG	1.03 ± 0.029
TCTGTTTTGG	1 ± 0.038
TCTTAAAGCA	1.02 ± 0.06
TCTTAAGAGT	0.9987 ± 0.0022

Sequence	switch fluorescence ratio
TCTTACGATC	1 ± 0.021
TCTTACGGAC	1.31 ± 0.017
TCTTAGAGGT	0.983 ± 0.026
TCTTAGCCCT	1.01 ± 0.025
TCTTAGGCGG	0.977 ± 0.039
TCTTAGGGAT	1 ± 0.052
TCTTATAAGC	0.984 ± 0.028
TCTTATTTTT	1.01 ± 0.025
TCTTCTATCT	0.985 ± 0.039
TCTTCTGGCT	1.02 ± 0.019
TCTTCTGTCG	1.001 ± 0.0087
TCTTGAAATT	1.021 ± 0.0031
TCTTGATTTT	1 ± 0.011
TCTTGGCCAT	1.24 ± 0.32
TCTTGGGTTG	0.986 ± 0.029
TCTTGGTCAG	0.991 ± 0.025
TCTTGGTCGG	1.026 ± 0.0041
TCTTGGTGT	0.9898 ± 0.0088
TCTTGTAGCG	0.986 ± 0.016
TCTTTAAAGT	1.04 ± 0.083
TCTTTAATAA	1 ± 0.039
TCTTTATGTG	0.998 ± 0.016
TCTTTCAAGT	0.994 ± 0.011
TCTTTCCTGC	1.022 ± 0.0014
TCTTTCTTTC	1.01 ± 0.03
